From publication PMC2735845

Molecular target: RecQ;SSB113 (Escherichia coli;Escherichia coli, UniProt P15043;P0AGE0 1-609;2-178, |P177S)
Experiment: EMSA

B1: 3'-OH partial duplex (o100/o30) (mixed)
DNA 1: GACGCTCGGTTCGTCTAGGACCGTCATTAGTATGTTGATATACATAGACCTTACCGCAGTGATTCGCTTGTCAGTCCATTGAAGCACAATTACCCACGC
DNA 2: CTAATGACGGTCCTAGACGAACCGAGCGTC
B1: binds.
